± gives the standard error. For some assays here: Fewer inactive variants are shown than the library holds.
B1: glmS ribozyme (parent)
chain: AUAAAAGCGCCAGAACUACAGAAAUGUAGUUGACGAGGAGGAGGUUUAUCGAAUUUUCGGCGGAUGCCUCCAAA

What was measured:
Settings in all cases: with glucosamine-6-phosphate
[1] = variants of: B1; experiment: kcat; higher = faster cleavage; RNA array
Summary of the method: (§1)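 Glucosamine-6-phosphate (40 μM to 10 mM) in HEPES/KCl/Mg(OAc)2 buffer was flowed over sequenced MiSeq chips, and tiles were imaged over ~14 h. Barcoded ribozyme variants there had been transcribed in situ by E. coli RNA polymerase and were tracked through a hybridised Cy3 probe at 37 °C. One- or two-exponential decay fits to per-tile medians, normalised to baseline and to non-cleaving reference variants, gave kobs. kcat and KM came from weighted Michaelis–Menten fits across concentrations.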

[2] = variants of: B1; experiment: KM; higher = weaker cofactor use; RNA array
Summary of the method: as §1

[3] = variants of: B1; experiment: self-cleavage kobs at 160 uM GlcN6P; higher = faster cleavage; RNA array
Summary of the method: as §1

[4] = variants of: B1; experiment: self-cleavage kobs at 640 uM GlcN6P; higher = faster cleavage; RNA array
Summary of the method: as §1

[5] = variants of: B1; experiment: self-cleavage kobs at 2500 uM GlcN6P; higher = faster cleavage; RNA array
Summary of the method: as §1

[6] = variants of: B1; experiment: self-cleavage kobs at 10000 uM GlcN6P; higher = faster cleavage; RNA array
Summary of the method: as §1

[7] = variants of: B1; experiment: self-cleavage kobs at 40 uM GlcN6P; higher = faster cleavage; RNA array
Summary of the method: as §1

Variant	kcat [1]	KM [2]	self-cleavage kobs at 160 uM GlcN6P [3]	self-cleavage kobs at 640 uM GlcN6P [4]	self-cleavage kobs at 2500 uM GlcN6P [5]	self-cleavage kobs at 10000 uM GlcN6P [6]	self-cleavage kobs at 40 uM GlcN6P [7]
AUAAAAGCGCCAGAACUACAGAAAUGUAGUUGACGAGGAGGAGGUUUAUCGAAAUUUCGGCGGAUCCCUCCAAA [U54A G66C]	0.000876 ± 0.00013 s⁻¹	1230 ± 390 µM	0.00012 ± 2.7e-05 s⁻¹	0.000259 ± 6.7e-05 s⁻¹	0.000758 ± 0.00014 s⁻¹	0.000737 ± 0.0001 s⁻¹	–
AUAAAAGCGCCAGAACUACAGAAAUGUAGUUGACGAGGAGGAGGUUUAUCGAAAUUUCGGCGGGUGCCUCCAAA [U54A A64G]	0.0348 ± 0.011 s⁻¹	2310 ± 830 µM	0.00313 ± 0.0007 s⁻¹	0.00654 ± 0.0014 s⁻¹	–	0.029 ± 0.0072 s⁻¹	0.00058 ± 7.4e-05 s⁻¹
AUAAAAGCGCCAGAACUACAGAAAUGUAGUUGACGAGGAGGAGGUUUAUCGAUUUUUCGGCGGACGCCUCCAAA [A53U U65C]	0.000266 ± 3.1e-05 s⁻¹	1370 ± 310 µM	–	8.76e-05 ± 1.6e-05 s⁻¹	0.000196 ± 5.3e-05 s⁻¹	0.000222 ± 4.6e-05 s⁻¹	–
AUAAAAGCGCCAGAACUACAGAAAUGUAGUUGACGAGGAGGAGGUUUAUCGAUUUUUCGGCGGAGGCCUCCAAA [A53U U65G]	0.00461 ± 0.00078 s⁻¹	4560 ± 1200 µM	0.000238 ± 5.5e-05 s⁻¹	0.000611 ± 0.00011 s⁻¹	0.00152 ± 0.0002 s⁻¹	0.00323 ± 0.00034 s⁻¹	3.59e-05 ± 7e-06 s⁻¹
AUAAAAGCGCCAGAACUACAGAAAUGUAGUUGACGAGGAGGAGGUUUAUCGAUUUUUCGGCGCAUGCCUCCAAA [A53U G63C]	< 1e-05 s⁻¹	–	–	–	–	–	–
AUAAAAGCGCCAGAACUACAGAAAUGUAGUUGACGAGGAGGAGGUUUAUCGAUUUAUCGGCGGAUGCCUCCAAA [A53U U56A]	0.00699 ± 0.0012 s⁻¹	1820 ± 450 µM	0.000573 ± 8e-05 s⁻¹	0.00169 ± 0.0002 s⁻¹	0.00313 ± 0.00052 s⁻¹	0.00667 ± 0.00065 s⁻¹	0.000172 ± 2.1e-05 s⁻¹
AUAAAAGCGCCAGAACUACAGAAAUGUAGUUGACGAGGAGGAGGUUUAUCGAUUUUUCGGCGGAUGCCUGCAAA [A53U C70G]	0.000152 ± 2.3e-05 s⁻¹	168 ± 74 µM	6.88e-05 ± 7.7e-06 s⁻¹	0.000133 ± 1.5e-05 s⁻¹	0.000136 ± 2.3e-05 s⁻¹	0.000142 ± 2.6e-05 s⁻¹	8.15e-05 ± 2.5e-05 s⁻¹
AUAAAAGCGCCAGAACUACAGAAAUGUAGUUGACGAGGAGGAGGUUUAUCGAUUUUUCGGCGGAUUCCUCCAAA [A53U G66U]	0.00118 ± 0.00016 s⁻¹	2320 ± 590 µM	6.64e-05 ± 1.7e-05 s⁻¹	0.000307 ± 7.4e-05 s⁻¹	0.000716 ± 0.00012 s⁻¹	0.000904 ± 0.00012 s⁻¹	–
AUAAAAGCGCCAGAACUACAGAAAUGUAGUUGACGAGGAGGAGGUUUAUCGAAAUUUGGGCGGAUGCCUCCAAA [U54A C58G]	0.000169 ± 2.8e-05 s⁻¹	3660 ± 1700 µM	–	–	7.4e-05 ± 2.3e-05 s⁻¹	0.000123 ± 2.1e-05 s⁻¹	< 1e-05 s⁻¹
AUAAAAGCGCCAGAACUACAGAAAUGUAGUUGACGAGGAGGAGGUUUAUCGAAAUUUAGGCGGAUGCCUCCAAA [U54A C58A]	0.000802 ± 0.00016 s⁻¹	5450 ± 1700 µM	2.83e-05 ± 1.3e-05 s⁻¹	9.65e-05 ± 1.3e-05 s⁻¹	0.000217 ± 2.9e-05 s⁻¹	0.000547 ± 5.7e-05 s⁻¹	–
AUAAAAGCGCCAGAACUACAGAAAUGUAGUUGACGAGGAGGAGGUUUAUCGAAAUUUCGGCGGAUGCCUCCAAA [U54A]	0.0591 ± 0.015 s⁻¹	2360 ± 680 µM	0.00285 ± 0.00013 s⁻¹	0.0124 ± 0.00049 s⁻¹	0.03 ± 0.0018 s⁻¹	0.0497 ± 0.0024 s⁻¹	0.00106 ± 2e-05 s⁻¹
AUAAAAGCGCCAGAACUACAGAAAUGUAGUUGACGAGGAGGAGGUUUAUCGAUUUUGCGGCGGAUGCCUCCAAA [A53U U57G]	0.000158 ± 2.7e-05 s⁻¹	4010 ± 1600 µM	–	3.61e-05 ± 1.4e-05 s⁻¹	5.56e-05 ± 1e-05 s⁻¹	0.000115 ± 1.4e-05 s⁻¹	–
AUAAAAGCGCCAGAACUACAGAAAUGUAGUUGACGAGGAGGAGGUUUAUCGAUUUUUUGGCGGAUGCCUCCAAA [A53U C58U]	6.85e-05 ± 2.7e-06 s⁻¹	2650 ± 390 µM	–	–	3.23e-05 ± 1.2e-05 s⁻¹	5.43e-05 ± 6.6e-06 s⁻¹	–
AUAAAAGCGCCAGAACUACAGAAAUGUAGUUGACGAGGAGGAGGUUUAUCGAUUUUUAGGCGGAUGCCUCCAAA [A53U C58A]	0.000327 ± 1.5e-05 s⁻¹	3010 ± 250 µM	–	5.94e-05 ± 5.9e-06 s⁻¹	0.000143 ± 1.3e-05 s⁻¹	0.000256 ± 2.2e-05 s⁻¹	–

— the supplement of paper PMC7125110
